Holding throughout (experiment): FP
In assay [1] the target is human BCL-2 fused to the N-terminal half of T7 RNAP (human).
For another assay, the target named is GST only (Schistosoma japonicum).
Assay [2] addresses L4-3.
The target in assay [3] is T1, hsMCL-1 variant L1-1 (human, UniProt Q07820).
Assay [4] has as its target L3-1.
The target in assay [5] is L3-3.
For assay [6], the target named is B1-3.
Assay [7] concerns the target B3-1.
The target in assay [8] is B4-2.
In assay [9] the target is B2-1.
In assay [10] the target is B1-3. This is another data set of the same source.
The target of assay [11] is B3-1. The source holds these as a separate data set.
The target of assay [12] is B4-2. The source holds these as a separate data set.
The target of assay [13] is B2-1. This is another data set of the same source.
In assay [14] the target is L4-3. This is another data set of the same source.
Assay [15] deals with T1, hsMCL-1 variant L1-1. The source holds these as a separate data set.
Assay [16] addresses L3-1. This is another data set of the same source.
In assay [17] the target is L3-3. This is another data set of the same source.

The results in this text go back to article PMC8282340 (2021).

Like-named read-outs stand apart in the source and are kept apart here.

Sequence of human BCL-2 fused to the N-terminal half of T7 RNAP (human) (chain, as listed by the source): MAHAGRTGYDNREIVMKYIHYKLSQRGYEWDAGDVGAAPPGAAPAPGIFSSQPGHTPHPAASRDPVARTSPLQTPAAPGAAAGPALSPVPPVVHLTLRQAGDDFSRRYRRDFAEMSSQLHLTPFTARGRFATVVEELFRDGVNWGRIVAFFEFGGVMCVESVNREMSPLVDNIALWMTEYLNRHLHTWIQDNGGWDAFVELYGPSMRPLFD

B1: fluorescent BID peptide (peptide)
chain: QEDIIRNIARHLAQVGDSMDR
HELM: PEPTIDE1{[O=C1OC2(c3ccc(O)cc3Oc3cc(O)ccc32)c2ccc(C(=O)[*:2])cc21].[O=C(CCCCCN[*:1])[*:2]].Q.E.D.I.I.R.N.I.A.R.H.L.A.Q.V.G.D.S.M.D.R.[am]}$$$$V2.0
SMILES: CC[C@H](C)[C@H](NC(=O)[C@H](CC(N)=O)NC(=O)[C@H](CCCNC(=N)N)NC(=O)[C@@H](NC(=O)[C@@H](NC(=O)[C@H](CC(=O)O)NC(=O)[C@H](CCC(=O)O)NC(=O)[C@H](CCC(N)=O)NC(=O)CCCCCNC(=O)c1ccc2c(c1)C(=O)OC21c2ccc(O)cc2Oc2cc(O)ccc21)[C@@H](C)CC)[C@@H](C)CC)C(=O)N[C@@H](C)C(=O)N[C@@H](CCCNC(=N)N)C(=O)N[C@@H](Cc1c[nH]cn1)C(=O)N[C@@H](CC(C)C)C(=O)N[C@@H](C)C(=O)N[C@@H](CCC(N)=O)C(=O)N[C@H](C(=O)NCC(=O)N[C@@H](CC(=O)O)C(=O)N[C@@H](CO)C(=O)N[C@@H](CCSC)C(=O)N[C@@H](CC(=O)O)C(=O)N[C@@H](CCCNC(=N)N)C(N)=O)C(C)C
For B1, the Kd is 87.6 nM in assay [1]; > 1000 nM with GST only; 18.7 nM in the assay with L4-3 [2]; 5.38 nM in the assay with hsMCL-1 variant L1-1 [3]; 25.3 nM with L3-1 [4]; 9.29 nM with L3-3 [5]. The Kd with B1-3 [6] was 7.21 nM; with B3-1 [7], 33.4 nM; with B4-2 [8], 5.16 nM; with B2-1 [9], 43.3 nM.

B2: fluorescent NOXA peptide (peptide)
chain: AELEVECATQLRRFGDKLNFRQKLL
HELM: PEPTIDE1{[O=C1OC2(c3ccc(O)cc3Oc3cc(O)ccc32)c2ccc(C(=O)[*:2])cc21].[O=C(CCCCCN[*:1])[*:2]].A.E.L.E.V.E.C.A.T.Q.L.R.R.F.G.D.K.L.N.F.R.Q.K.L.L.[am]}$$$$V2.0
SMILES: CC(C)C[C@H](NC(=O)[C@H](CC(C)C)NC(=O)[C@H](CCCCN)NC(=O)[C@H](CCC(N)=O)NC(=O)[C@H](CCCNC(=N)N)NC(=O)[C@H](Cc1ccccc1)NC(=O)[C@H](CC(N)=O)NC(=O)[C@H](CC(C)C)NC(=O)[C@H](CCCCN)NC(=O)[C@H](CC(=O)O)NC(=O)CNC(=O)[C@H](Cc1ccccc1)NC(=O)[C@H](CCCNC(=N)N)NC(=O)[C@H](CCCNC(=N)N)NC(=O)[C@H](CC(C)C)NC(=O)[C@H](CCC(N)=O)NC(=O)[C@@H](NC(=O)[C@H](C)NC(=O)[C@H](CS)NC(=O)[C@H](CCC(=O)O)NC(=O)[C@@H](NC(=O)[C@H](CCC(=O)O)NC(=O)[C@H](CC(C)C)NC(=O)[C@H](CCC(=O)O)NC(=O)[C@H](C)NC(=O)CCCCCNC(=O)c1ccc2c(c1)C(=O)OC21c2ccc(O)cc2Oc2cc(O)ccc21)C(C)C)[C@@H](C)O)C(N)=O
As for B2, the Kd in assay [1] is 948 nM; in the assay with GST only, > 1000 nM; with B1-3 [10], 137 nM; with B3-1 [11] it was 53.4 nM; with B4-2 [12], 186 nM; in the assay with B2-1 [13] it was 340 nM. The Kd in the assay with L4-3 [14] was > 1000 nM; in the assay with hsMCL-1 variant L1-1 [15], 489 nM; in the assay with L3-1 [16], 949 nM; in the assay with L3-3 [17] it was > 1000 nM.
